Data on 2 molecules can be found in article PMC7522722, “Differential epigenetic regulation between the alternative promoters, PRDM1α and PRDM1β, of the tumour suppressor gene PRDM1 in human multiple myeloma cells”.

Data set [1] deals with T1, TP53 (recombinant human, Calbiochem 506165) (human, UniProt P04637 1-393). Nature of the data set: EMSA; anti-TP53 antibody tested; EMSA as in a cited earlier paper; buffer, salt, pH and temperature not given; competitor 100x excess added 10 min before probe; antibody preincubation 1 h on ice. The settings on record: protein: commercial; chain copies: 4; label: 32P (Klenow fill-in with [alpha-32P]-dCTP); 5' overhang 1 nt (G) on strand 2, filled in with labelled dC. A general note: In EMSA bound probe runs differently from free probe, usually more slowly.
T1 sequence (P04637 whole entry): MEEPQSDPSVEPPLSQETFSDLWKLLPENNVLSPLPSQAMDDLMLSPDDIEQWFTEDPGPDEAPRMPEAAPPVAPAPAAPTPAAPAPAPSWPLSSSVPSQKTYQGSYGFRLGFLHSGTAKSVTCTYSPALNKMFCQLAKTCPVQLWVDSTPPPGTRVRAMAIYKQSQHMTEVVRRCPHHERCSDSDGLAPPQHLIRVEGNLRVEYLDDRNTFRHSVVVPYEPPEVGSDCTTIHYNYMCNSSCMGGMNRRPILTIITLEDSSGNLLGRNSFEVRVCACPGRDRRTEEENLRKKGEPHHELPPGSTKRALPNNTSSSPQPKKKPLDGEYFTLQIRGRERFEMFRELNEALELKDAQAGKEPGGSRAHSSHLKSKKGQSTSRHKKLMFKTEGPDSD

Data set [2] has as its target T1, TP53 (recombinant human, Calbiochem …). The data set can be described thus: EMSA; shifted band faded by anti-TP53 antibody; EMSA as in a cited earlier paper; buffer, salt, pH and temperature not given; competitor 100x excess added 10 min before probe; antibody preincubation 1 h on ice. The settings on record: protein: commercial; chain copies: 4; label: 32P (Klenow fill-in with [alpha-32P]-dCTP); 5' overhang 1 nt (G) on strand 1, filled in with labelled dC.

B1: TP53 probe (putative TP53 site, Panomics) (dsDNA)
DNA 1: TACAGAACATGTCTAAGCATGCTGGGG
DNA 2: GCCCCAGCATGCTTAGACATGTTCTGTA
With B1, the binding result in data set [1] is “binds”.

B2: wtFOXA1 probe (dsDNA)
DNA 1: GGAAAGTGCAAGTCTGGACATGTTTATCAAGAGG
DNA 2: CCTCTTGATAAACATGTCCAGACTTGCACTTTC
For B2, the binding result in data set [2] was “binds”.
